These sequences were tested on MS2 coat protein (assay: apparent KD of MS2 coat protein, switch ON state; designed switch direction (-1 OFF switch, 1 ON switch): -1; higher = weaker reporter binding). Details: FMN input: 0 or 200 uM; Eterna round: R93 (includes R88 designs).
Summary of the method: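 Titrations with SNAP-549-labelled MS2 coat protein ran in twofold steps from 0.7 or 1.5 nM to 3 µM, each step taking 0.8–1.5 h at the start and 10–20 min toward the end. The targets were designed RNA switches transcribed on-chip from Illumina sequencing clusters, held in 100 mM Tris-HCl pH 7.5, 80 mM KCl, 4 mM MgCl2, without or with constant ligand. Apparent KD was taken per design as the median of normalised cluster binding-curve fits.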

Compared with “AAACGUUGAGGAUAUACAAAAGGGUAUAAAUCAAAAAAAACACAUGAGGAUCACCCAUGUAGAAGGCAACGAAA”, “AAAAAACAUGAGGAUCACCCAUGUGAGGAUAUGCAAAAAUAAAAUAAAAUAAUAAAAAGCAGAAGGCACAAAAA [Amethyst 76]” is 6.2-fold lower in “apparent KD of MS2 coat protein” value: 128 nM for the first, 20.5 nM for the second.

“AAAAAGCUAGGAUAUACGAAAAAAAAGGGUAAAAAAUAAAAACAUGAGGAUCACCCAUGUAGAAGGAGCAAAAA [Mat - Exclusion 2 - Tesla mod - D36]” and “AAGAAGGCAGGAUAUACAUGAAAGAAAGAAAAGAAAAGAAAACAUGAGGAUCACCCAUGUAGAAGGGCCAAGAA [EteRNA is fun!]” are within 1.5-fold of each other in “apparent KD of MS2 coat protein” value: 43.2 nM for the first, 29.8 nM for the second.

First: AAAAAGUGAGGAUAUACAUGAGAAAAAAAAAUGUAAAAAAAACAUGAGGAUCACCCAUGUAGAAGGCACAAAAA [Ecxl-II]
Second: AAAACACAUGAGGAUCACCCAUGUGAGGAUAUGAACGAAAAUAAAUAAAAAUAAAAGUUCAGAAGGCACAAAAA [66%, Wbt, 11]
The “apparent KD of MS2 coat protein” value of the first is 1.7-fold higher: 40.8 nM for the first, 24.2 nM for the second.

“CUCUAGUCAGGAUAUCGAAGAAAAGAAGAGAAAGAAAAGAACGAGAAGGGACAUGAGGAUCACCCAUGUAAGAA [EteRNA is fun!]” and “AGAAAACAUGAGGAUCACCCAUGUCAGGAUAUGUAAAAGAAAAGAAAAGAAAGAAGAAACAGAAGGGACAAGAA [Seth-Peribsen]” are within 1.5-fold of each other in “apparent KD of MS2 coat protein” value: 50 nM for the first, 56.9 nM for the second.

First: AGUGAGUGAGGAUAUCACUGAACAACAAAACAAAUAACGAGUGAGAAGGCACAUGAGGAUCACCCAUGUACACA [May 67]
Second: GACCAGUGAGGAUAUGUAAAAAAAAGAGAAGAGAAGAGAGAACAGAAGGCACAUGAGGAUCACCCAUGUAGGGA [Default title]
The “apparent KD of MS2 coat protein” value of the first is 6.1-fold lower: 23.4 nM for the first, 143 nM for the second.

First: AAAAAGUGAGGAUAUACGGUGUGGAGUAGACACAACCAGGCGUAGAAGGCACAUGAGGAUCACCCAUGUCCAAA [EX4 Malc#15]
Second: AGCUAGUCAGGAUAUACGAACAUGUCAAAAGACGUAAGGGAACAUGAGGAUCACCCAUGUAGAAGGGACUCGCA [Diamond 51]
The “apparent KD of MS2 coat protein” value of the first is 2.4-fold lower: 25.9 nM for the first, 61.3 nM for the second.

“AGAAAGUGAGGAUAUACAUGAGGAUCACCCAUGUAGAACGAGAGUUAUAAAAAUGGAAGUAGAAGGCGCAAAAG [water's exclusion 3 2nd]” and “AAAGGGUCAGGAUAUGCACGAACAACAAAACAAAUAACGAUGCAGAAGGGACAUGAGGAUCACCCAUGUAUAAA [May 75]” are within 1.5-fold of each other in “apparent KD of MS2 coat protein” value: 28.6 nM for the first, 33.4 nM for the second.

Compared with “AAAGGGCGAGGAUAUACAUGAGGAUCACCCAUGUAAAAAACAUAAUAAAAGAAUUUAUGUAGAAGGCGCCCAAA [Ruby 60]”, “CUCUUGUCAGGAUAUGUAAGAAAAGAAAAGAAAGAAAAGAAACAGAAGGGACAUGAGGAUCACCCAUGUAAGAA [EteRNA is fun!]” is 5.2-fold higher in “apparent KD of MS2 coat protein” value: 15.2 nM for the first, 78.9 nM for the second.

First: ACUAAUGAAGGAUAUACAAACAACAAACACACAACACACACACAUGAGGAUCACCCAUGUAGAAGGUCAAACAU [JR_Exc002_Sub1203]
Second: AAAAAACAUGAGGAUCACCCAUGUAAGGAUAUGUAAAAUAAAAGAAAAAUAAAGAAAAGCAGAAGGUACAAGAA [JL wbt mod 18]
The “apparent KD of MS2 coat protein” value of the first is 2.3-fold lower: 15.8 nM for the first, 37.1 nM for the second.

“AAGAACGGAGGAUAUACAUGAGGAUCACCCAUGUAAAAGAAAGAGGGAAAAGAGAAAAGUAGAAGGCCGAAGAA [Haaibre Alexander IV]” and “AAGAACAUAGGAUAUACAAGGAAGAAAGAAAAGAAAAGAAAACAUGAGGAUCACCCAUGUAGAAGGAUGUAGAA [EteRNA is fun!]” are within 1.5-fold of each other in “apparent KD of MS2 coat protein” value: 28 nM for the first, 24.4 nM for the second.

“AAAAACUCAGGAUAUACAUGAGGAUCACCCAUGUAAAAAAAAAAAAAGGGAAAAAAAAGUAGAAGGGAGAAAAA [Semenre]” and “CUCUUGUGAGGAUAUCAAAGAAAAGAAAAGAAAGAAAAGAAUGAGAAGGCACAUGAGGAUCACCCAUGUAAGAA [EteRNA is fun!]” are within 1.5-fold of each other in “apparent KD of MS2 coat protein” value: 25.5 nM for the first, 36.4 nM for the second.

Compared with “AUAGUACAUGAGGAUCACCCAUGUCAGGAUAUUCGAAAUGAAAAAAAAAAAAAAUGAAGGAGAAGGGACUAUAA [EX1 Malc#11]”, “AGAAAGCUAGGAUAUACCUGGAGGGUUCUAAAUGAAAUAAAACAUGAGGAUCACCCAUGUAGAAGGAGCCCGAA [Sobire]” is 4.1-fold lower in “apparent KD of MS2 coat protein” value: 74.7 nM for the first, 18.3 nM for the second.

“AAAAAAGGAGGAUAUACGUACAUGUCAAAAGACGUGAAGGGACAUGAGGAUCACCCAUGUAGAAGGUUUAAAAA [JL Wide Open 31]” and “AACAAGUCAGGAUAUGUUAAAGGUUACGAAAGGGAUAAAGGGCAGAAGGGACAUGAGGAUCACCCAUGUAAUAA [And All that Jazx]” are within 1.5-fold of each other in “apparent KD of MS2 coat protein” value: 49.1 nM for the first, 48 nM for the second.

Compared with “AACAAACAUGAGGAUCACCCAUGUCAGGAUAUGCAAAUAACAAACAACAAACAACAAAGCAGAAGGGACGACAA [Mat - Exclusion 1 - Eli mod - D51]”, “GAAAAGUCAGGAUAUGCAGAUAAAAAAACGAAAAAAAAUCUGCAGAAGGGACAUGAGGAUCACCCAUGUAAAAG [Mat - Exclusion 4 - Mayanna - D110]” is 3-fold higher in “apparent KD of MS2 coat protein” value: 22.1 nM for the first, 66.3 nM for the second.

Going from “AAGAAACUAGGAUAUACAAGGAAGAAAGAAAAGAAAAGAAAACAUGAGGAUCACCCAUGUAGAAGGAGUUAGAA [EteRNA is fun!]” to “AAAAAUGGAGGAUAUACAUGAGGAUCACCCAUGUGUAACUAUACUAAGCACUCCUCACGUAGAAGGCCAAAAAA [Gilly Gone Silly 13 - Jieux - Exclusion 3]”, the “apparent KD of MS2 coat protein” value rises from 36.3 nM to 55.3 nM (1.5-fold).

First: GAAAAUUGAGGAUAUACGAACAUGUCAAAAGACGUGAAGGGACAUGAGGAUCACCCAUGUAGAAGGCGAAAGAG [Mat - Exclusion 2 - JL mod - D92]
Second: AAAAAGGUAGGAUAUACAUGAGGAUCACCCAUGUAAAAAAAUGGAGAAAAAAACAAUUGUAGAAGGGCCAAAAA [Ex3 Malc#7]
The “apparent KD of MS2 coat protein” value of the first is 1.5-fold higher: 58.6 nM for the first, 38.8 nM for the second.

Compared with “AACAGUACAGGAUAUACAUGAGGAUCACCCAUGUGAACUUCAAGUGCCGUAGCACGAAGUAGAAGGGUACUGGA”, “GCUUGCCAAGGAUAUACAUGAGGAUCACCCAUGUGAGAGAAAAAAGUGAGAAAGAAAAGUAGAAGGUGGUGAGG [salish99-ex3-110]” is 2.4-fold lower in “apparent KD of MS2 coat protein” value: 63.4 nM for the first, 26.4 nM for the second.

With “GGAAAACAUGAGGAUCACCCAUGUAAGGAUAUGCAAAAAAAAAAAAGGAUAUAGAAGGGCAGAAGGUACAAAGG [salish99-ex1-30]” the “apparent KD of MS2 coat protein” value was 23.3 nM.

— the supplement of paper PMC9170038
